23 molecules from patent publication US20220251219A1 (published 2022) can be followed below.

Assay [1] has as its target T1, recombinant human Sortilin (human, UniProt Q99523 78-830).
T1 construct: also called hSort; SORT1
Nature of the assay: flow cytometry, 293 cells expressing recombinant human Sortilin, 10 ug/ml antibody. A general note: A flow cytometer gives signals particle by particle.
Procedure: (§1) Cells were harvested, plated at 10⁵/ml in a 96 well plate, washed, and incubated in 100 μl PBS containing 10 μg/ml Mab and 2% FBS for 1 hour in ice. Cells were then washed twice and incubated in 100 μl PBS+2% FBS containing 5 μg/ml PE-conjugated anti-human secondary antibody for 30 minutes in ice. Cells were washed twice in cold PBS and data was acquired on a BD FACS Canto. Data analysis and calculation of MFI values was performed with FlowJo (TreeStar) software version 10.0.7.

Assay [2] addresses T2, recombinant mouse Sortilin (mouse, UniProt Q6PHU5 74-825).
T2 construct: also called mSort
Briefly: flow cytometry, 293 cells expressing recombinant mouse Sortilin, 10 ug/ml antibody.
Procedure: as §1

A further assay has as its target human Sortilin (human, UniProt Q99523 78-830). Briefly: cell-based or functional assay.

B1: anti-Sortilin antibody S-55 (antibody, V domains shown)
VH: QVQLQESGPGLVKPSETLSLTCAVSGYSISSGYYWGWIRQPPGKGLEWIGSIYHSGSTYYNPSLKSRVTISVDTSKNQFSLKLSSVTAADTAVYYCARGRPELGWDKYFQHWGQGTLVTVSS
VL: DIQMTQSPSSVSASVGDRVTITCRASQGISRWLAWYQQKPGKAPKLLIYAASSLQSGVPSRFSGSGSGTDFTLTISSLQPEDFATYYCQQANALPTFGGGTKVEIK
notes: IgG
In the case of B1, the results for the MFI in assay [1] and in assay [2] were 9480 MFI and 21400 MFI, respectively.

B2: anti-Sortilin antibody S-60 (antibody, V domains shown)
VH: QVQLQESGPGLVKPSETLSLTCAVSGYSISSGYYWGWIRQPPGKGLEWIGTIYHSGSTYYNPSLKSRVTISVDTSKNQFSLKLSSVTAADTAVYYCARQGSIKQGYYGMDVWGQGTTVTVSS
VL: not shown
Take B2: in the assay with human Sortilin, the “Fold increase in Progranulin levels in U251 cells” value turned out to be 2.24 fold and the “Percent reduction of Sortilin levels in U251 cells” value (“Percent reduction” below) came out at 59.5%.

B3: anti-Sortilin antibody S-74 (antibody, V domains shown)
VH: QVQLQESGPGLVKPSQTLSLTCTVSGGSISSGTYYWSWIRQHPGKGLEWIGYIYYSGSTYYNPSLKSRVTISVDTSKNQFSLKLSSVTAADTAVYYCARGVGRYRVADYWGQGTLVTVSS
VL: EIVMTQSPATLSLSPGERATLSCRASQSVSSYLAWYQQKPGQAPRLLIYDSSNRATGIPARFSGSGSGTDFTLTISSLEPEDFAVYYCQQETNMPPITFGGGTKVEIK
As for B3, the “Percent reduction” value with human Sortilin stood at 22.1%.

B4: anti-Sortilin antibody S-83 (antibody, V domains shown)
VH: QLQLQESGPGLVKPSETLSLTCTVSGGSISSSSYYWGWIRQPPGKGLEWIGSIYYSGSTYYNPSLKSRVTISVDTSKNQFSLKLSSVTAADTAVYYCARGSPTWLRDYYMDVWGKGTTVTVSS
VL: EIVLTQSPATLSVSPGERATLSCRASQSVSSNLAWYQQKPGQAPRLLIYGASTRATGIPARFSGSGSGTEFTLTISSLQSEDFAVYYCQQYNAFPPTFGGGTKVEIK
On to B4, for which, in the assay with human Sortilin, the “Percent reduction” value was found to be 48.1%.

B5: anti-Sortilin antibody S-58 (antibody, V domains shown)
VH: QVQLQESGPGLVKPSETLSLTCAVSGYSISSGYYWGWIRQPPGKGLEWIGSIYHSGNTYYNPSLKSRVTISVDTSKNQFSLKLSSVTAADTAVYYCARGPPELGKMYFQHWGQGTLVTVSS
VL: EIVLTQSPATLSVSPGERATLSCRASQSVSSNLAWYQQKPGQAPRLLIYGASTRATGIPARFSGSGSGTEFTLTISSLQSEDFAVYYCQQDRKGPLTFGGGTKVEIK
notes: IgG
In the case of B5, the MFI was 7770 MFI in assay [1] and 15100 MFI in assay [2].

B6: anti-Sortilin antibody S-69 (antibody, V domains shown)
VH: QVQLQESGPGLVKPSQTLSLTCTVSGGSISSGGYYWSWIRQHPGKGLEWIGYIYYSGSTYYNPSLKSRVTISVDTSKNQFSLKLSSVTAADTAVYYCARDRGGTHFGADHYYYGMDVWGQGTMVTVSS
VL: EIVMTQSPATLSVSPGERATLSCRASQSVSSSLAWYQQKPGQAPRLLIYGASTRATGIPARFSGSGSGTEFTLTISSLQSEDFAVYYCQQAADWPITFGGGTKVEIK
Consider B6, for which the “Percent reduction” value with human Sortilin was determined as 23%.

B7: anti-Sortilin antibody S-6 (antibody, V domains shown)
VH: not shown
VL: EIVMTQSPATLSVSPGERATLSCRASQSVSSNLAWYQQKPGQAPRLLIYGASTRATGIPARFSGSGSGTEFTLTISSLQSEDFAVYYCQQVANYPRTFGGGTKVEIK
notes: IgG
Regarding B7, the MFI in assay [1] was 11100 MFI; in assay [2], 25600 MFI.

B8: anti-Sortilin antibody S-48 (antibody, V domains shown)
VH: QVQLVESGGGVVQPGRSLRLSCAASGFTFSSYGMHWVRQAPGKGLEWVAVISYDGSNKYYADSVKGRFTISRDNSKNTLYLQMNSLRAEDTAVYYCARESGDRATLVYYYYYGMDVWGQGTTVTVSS
VL: EIVMTQSPATLSVSPGERATLSCRASQSVSSNLAWYQQKPGQAPRLLIYSASTRATGIPARFSGSGSGTEFTLTISSLQSEDFAVYYCQQYNSWPITFGGGTKVEIK
notes: IgG
As for B8, the figures for the MFI in assay [1] and in assay [2] were 8140 MFI and 11900 MFI, respectively.

B9: anti-Sortilin antibody S-9 (antibody, V domains shown)
VH: QVQLVQSGAEVKKPGASVKVSCKASGYTFTSYGISWVRQAPGQGLEWMGWISAYNGNTNYAQKLQGRVTMTTDTSTSTAYMELRSLRSDDTAVYYCARDPGGYGPTLYYYYGMDVWGQGTTVTVSS
VL: EIVMTQSPATLSVSPGERATLSCRASQSVSSNLAWYQQKPGQAPRLLIYGASTRATGIPARFSGSGSGTEFTLTISSLQSEDFAVYYCQQYNIYPLTFGGGTKVEIK
notes: IgG
Regarding B9, the MFI amounted to 10300 MFI in assay [1] and 22200 MFI in assay [2].

B10: anti-Sortilin antibody S-61 (antibody, V domains shown)
VH: QVQLQESGPGLVKPSETLSLTCAVSGYSISSGYYWGWIRQPPGKGLEWIGSIYHSGSTYYNPSLKSRVTISVDTSKNQFSLKLSSVTAADTAVYYCARGSPRFYYGSGSYLDLFDIWGQGTMVTVSS
VL: EIVMTQSPATLSVSPGERATLSCRASQSVSSNLAWYQQKPGQAPRLLIYGASTRATGIPARFSGSGSGTEFTLTISSLQSEDFAVYYCQEYLNYPITFGGGTKVEIK
notes: IgG
With B10, the figures for the MFI in assay [1] and in assay [2] were 7480 MFI and 21800 MFI, respectively.

B11: anti-Sortilin antibody S-4 (antibody, V domains shown)
VH: not shown
VL: EIVMTQSPATLSVSPGERATLSCRASQSVSSNLAWYQQKPGQAPRLLIYGASTRATGIPARFSGSGSGTEFTLTISSLQSEDFAVYYCQQFRVLPPTFGGGTKVEIK
notes: IgG
Turning to B11, the MFI in assay [1] worked out at 9120 MFI; in assay [2], 15700 MFI.

B12: anti-Sortilin antibody S-10 (antibody, V domains shown)
VH: QVQLVQSGAEVKKPGASVKVSCKASGYTFTSYGISWVRQAPGQGLEWMGWISAYNGNTNYAQKLQGRVTMTTDTSTSTAYMELRSLRSDDTAVYYCARDPGGYGPTLYYYYGMDVWGQGTTVTVSS
VL: EIVMTQSPATLSVSPGERATLSCRASQSVSSNLAWYQQKPGQAPRLLIYGASTRATGIPARFSGSGSGTEFTLTISSLQSEDFAVYYCQQYADWPPITFGGGTKVEIK
notes: IgG
Turning to B12, the MFI in assay [1] amounted to 8660 MFI; in assay [2], 19400 MFI.

B13: anti-Sortilin antibody S-12 (antibody, V domains shown)
VH: QVQLVQSGAEVKKPGASVKVSCKASGYTFTSYGISWVRQAPGQGLEWMGWISAYNGNTNYAQKLQGRVTMTTDTSTSTAYMELRSLRSDDTAVYYCARDLPKYKWGWFDPWGQGTLVTVSS
VL: not shown
On to B13, for which, in the assay with human Sortilin, the “Percent reduction” value is 12%.

B14: anti-Sortilin antibody S-12 (antibody, V domains shown)
VH: QVQLVQSGAEVKKPGASVKVSCKASGYTFTSYGISWVRQAPGQGLEWMGWISAYNGNTNYAQKLQGRVTMTTDTSTSTAYMELRSLRSDDTAVYYCARDLPKYKWGWFDPWGQGTLVTVSS
VL: not shown
notes: IgG
On to B14, for which the MFI in assay [1] turned out to be 9760 MFI; in assay [2] it was 18800 MFI.

B15: anti-Sortilin antibody S-40 (antibody, V domains shown)
VH: not shown
VL: EIVMTQSPATLSLSPGERATLSCRASQSVSSYLAWYQQKPGQAPRLLIYDASNRATGIPARFSGSGSGTDFTLTISSLEPEDFAVYYCQQRSALPFTFGGGTKVEIK
notes: IgG
Consider B15, for which the MFI turned out to be 7410 MFI in assay [1] and 2630 MFI in assay [2].

B16: anti-Sortilin antibody S-51 (antibody, V domains shown)
VH: QVQLVESGGGVVQPGRSLRLSCAASGFTFSSYGMHWVRQAPGKGLEWVAVISYDGSNKYYADSVKGRFTISRDNSKNTLYLQMNSLRAEDTAVYYCAKGLEYYDSSRLYYPYYYYMDVWGKGTTVTVSS
VL: EIVLTQSPATLSLSPGERATLSCRASQSVSSYLAWYQQKPGQAPRLLIYDASKRATGIPARFSGSGSGTDFTLTISSLEPEDFAVYYCQQRSNYPITFGGGTKVEIK
notes: IgG
For B16, the MFI in assay [1] stood at 12200 MFI; in assay [2], 21900 MFI.

B17: anti-Sortilin antibody S-64 (antibody, V domains shown)
VH: QVQLQESGPGLVKPSETLSLTCAVSGYSISSGYYWGWIRQPPGKGLEWIGSIYHSGSTYYNPSLKSRVTISVDTSKNQFSLKLSSVTAADTAVYYCARAEHRGPRYFDLWGRGTLVTVSS
VL: DIQMTQSPSSLSASVGDRVTITCRASQSINSYLNWYQQKPGKAPKLLIYAASSLQSGVPSRFSGSGSGTDFTLTISSLQPEDFATYYCQQLDSTPITFGGGTKVEIK
Turning to B17, the “Percent reduction” value with human Sortilin came out at 37.4%.

B18: anti-Sortilin antibody S-65 (antibody, V domains shown)
VH: QVQLQESGPGLVKPSETLSLTCAVSGYSISSGYYWGWIRQPPGKGLEWIGSIYHSGSTYYNPSLKSRVTISVDTSKNQFSLKLSSVTAADTAVYYCAREGQLPTGTFDYWGQGTLVTVSS
VL: not shown
For the molecule B18, in the assay with human Sortilin, the “Percent reduction” value was 37.3%.

B19: anti-Sortilin antibody S-64 (antibody, V domains shown)
VH: QVQLQESGPGLVKPSETLSLTCAVSGYSISSGYYWGWIRQPPGKGLEWIGSIYHSGSTYYNPSLKSRVTISVDTSKNQFSLKLSSVTAADTAVYYCARAEHRGPRYFDLWGRGTLVTVSS
VL: DIQMTQSPSSLSASVGDRVTITCRASQSINSYLNWYQQKPGKAPKLLIYAASSLQSGVPSRFSGSGSGTDFTLTISSLQPEDFATYYCQQLDSTPITFGGGTKVEIK
notes: IgG
Regarding B19, the MFI in assay [1] amounted to 7930 MFI.

B20: anti-Sortilin antibody S-65 (antibody, V domains shown)
VH: QVQLQESGPGLVKPSETLSLTCAVSGYSISSGYYWGWIRQPPGKGLEWIGSIYHSGSTYYNPSLKSRVTISVDTSKNQFSLKLSSVTAADTAVYYCAREGQLPTGTFDYWGQGTLVTVSS
VL: not shown
notes: IgG
As for B20, the MFI amounted to 8070 MFI in assay [1] and 17900 MFI in assay [2].

B21: anti-Sortilin antibody S-76 (antibody, V domains shown)
VH: QVQLQESGPGLVKPSQTLSLTCTVSGGSISSGGYYWSWIRQHPGKGLEWIGSIYYSGSTYYNPSLKSRVTISVDTSKNQFSLKLSSVTAADTAVYYCARGVGIQQQLVLGFDPWGQGTLVTVSS
VL: DIQMTQSPSSLSASVGDRVTITCRASQSISSFLNWYQQKPGKAPKLLISAASSLQSGVPSRFSGSGSGTDFTLTISSLQPEDFATYYCQQSYREPITFGGGTKVEIK
Consider B21, for which the “Percent reduction” value in the assay with human Sortilin came out at 20.3%.

B22: anti-Sortilin antibody S-2 (antibody, V domains shown)
VH: not shown
VL: DIQMTQSPSSLSASVGDRVTITCRASQSISSYLNWYQQKPGKAPKLLIYAASSLQSGVPSRFSGSGSGTDFTLTISSLQPEDFATYYCQQSDVSPITFGGGTKVEIK
notes: IgG
On to B22, for which the MFI in assay [1] turned out to be 8430 MFI; in assay [2], 22400 MFI.

B23: anti-Sortilin antibody S-16 (antibody, V domains shown)
VH: QVQLVQSGAEVKKPGSSVKVSCKASGGTFSSYAISWVRQAPGQGLEWMGGIIPIFGTANYAQKFQGRVTITADESTSTAYMELSSLRSEDTAVYYCARSPYSGTRDFDLWGRGTLVTVSS
VL: DIQMTQSPSSVSASVGDRVTITCRASQGISSWLAWYQQKPGKAPKLLIYAASNLQSGVPSRFSGSGSGTDFTLTISSLQPEDFATYYCQQGNSYPITFGGGTKVEIK
notes: IgG
With B23, the MFI in assay [1] was 6280 MFI.
